Target: T1, recombinant 77-kDa GPBP expressed from pc-n4′ (human, UniProt Q9Y5P4 1-624)
T1 construct: untagged, transient expression in HEK 293 cells; also called 77-kDa GPBP isoform
T1 sequence: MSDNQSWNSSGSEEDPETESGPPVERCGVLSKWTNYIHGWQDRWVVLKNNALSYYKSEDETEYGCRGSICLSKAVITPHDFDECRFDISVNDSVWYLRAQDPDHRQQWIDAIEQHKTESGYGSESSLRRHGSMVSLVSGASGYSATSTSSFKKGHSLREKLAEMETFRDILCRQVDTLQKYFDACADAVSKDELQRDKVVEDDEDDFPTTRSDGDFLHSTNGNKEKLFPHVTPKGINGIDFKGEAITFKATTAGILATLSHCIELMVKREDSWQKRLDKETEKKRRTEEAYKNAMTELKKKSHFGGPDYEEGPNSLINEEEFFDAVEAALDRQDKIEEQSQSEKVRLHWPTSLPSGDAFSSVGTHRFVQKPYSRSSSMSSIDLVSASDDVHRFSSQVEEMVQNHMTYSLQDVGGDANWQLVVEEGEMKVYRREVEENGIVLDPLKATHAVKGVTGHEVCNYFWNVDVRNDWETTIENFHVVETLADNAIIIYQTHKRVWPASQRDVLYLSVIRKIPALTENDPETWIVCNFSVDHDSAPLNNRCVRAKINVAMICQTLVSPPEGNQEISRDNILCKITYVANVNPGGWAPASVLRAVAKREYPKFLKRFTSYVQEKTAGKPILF
Experiment: ex vivo cross-linking and FLAG immunoprecipitation
Protocol: Cells were grown up to 70-90% of confluence in either 150-mm plates (native GPBP) or six-well plates (recombinant GPBP). Cross-linking was performed 48 h after transfection or when cells reached the indicated confluence. Briefly, cells were brought to RT by rinsing with PBS and incubated for 10 min with culture medium containing 1% formaldehyde. The cross-link reaction was quenched with 125 mM Gly-HCl in PBS (pH 7.4) for 10 min at RT. Cells were brought to 4° C. by rinsing with ice-chilled PBS and procedure continued at 4° C. Cells were lysed with 1 or 5 ml (six-well or 150-mm plate) of extraction buffer [16 mM Tris-HCl pH 7.5, 160 mM NaCl, 2 mM ethylenediaminetetraacetic acid (EDTA), 1. […] Eluted samples were boiled with electrophoresis sample buffer (2×) for 15 min to reverse cross-linking and further analyzed by SDS-PAGE and either Coomassie blue staining or Western blot.
This was further assessed by ex vivo cross-linking and FLAG-immunoprecipitation of cells expressing or not expressing BM40-FLAG-α3(IV)NC1, a recombinant exportable form of the human α3(IV)NC1 (16), followed by SDS-PAGE analysis of immunoprecipitates (FIG. 4A). […] To further determine that GPBP indeed interacted with FLAG-α3(IV) in the ER, cells expressing or not expressing BM40-FLAG-α3(IV)NC1 were transfected with pc-n4′ and similarly analyzed (FIG. 4B).

B1: FLAG-α3(IV)NC1, recombinant exportable human α3(IV)NC1 domain (BM40-FLAG-α3(IV)NC1) (other, not shown: small tags and cut ends)
chain: GLKGKRGDSGSPATWTTRGFVFTRHSQTTAIPSCPEGTVPLYSGFSFLFVQGNQRAHGQDLGTLGSCLQRFTTMPFLFCNVNDVCNFASRNDYSYWLSTPALMPMNMAPITGRALEPYISRCTVCEGPAIAIAVHSQTTDIPPCPHGWISLWKGFSFIMFTSAGSEGTGQALASPGSCLEEFRASPFLECHGRGTCNYYSNSYSFWLASLNPERMFRKPIPSTVKAGELEKIISRCQVCMKKRH
notes: expressed in HEK 293-FLAG-α3(IV) cells; also called type IV collagen
B1: binds.

Reference: US20100021935A1 (FIBROSTATIN SOCIEDAD LIMITADA, published 2010)
